Values quoted from earlier work as cited in PMC4699190.

Target: Carbonic anhydrase II (Homo sapiens) (UniProt P00918)
Assay: solid-phase binding assay

| Kd | Substance |
| --- | --- |
| 597 nM | AE1 C-terminus (from UniProt P02730) |
| 322 nM | NBCe1 C-terminus (from UniProt Q9Y6R1) |
| 330 nM | NDCBE C-terminus (from UniProt Q2Y0W8) |
